Legend:
HLA-B*07:02 = biological target: T1, HLA-B*07:02 (human); assay: UV ligand exchange ELISA; exchange yield grade
T1 construct: Peptide-receptive MHC class I monomer made by UV cleavage of a UV-sensitive ligand
Excerpt: (§1) Candidate peptides for T cell based therapies according to the present invention were further tested for their MHC binding capacity (affinity). The individual peptide-MHC complexes were produced by UV-ligand exchange, where a UV-sensitive peptide is cleaved upon UV-irradiation, and exchanged with the peptide of interest as analyzed. Only peptide candidates that can effectively bind and stabilize the peptide-receptive MHC molecules prevent dissociation of the MHC complexes. To determine the yield of the exchange reaction, an ELISA was performed based on the detection of the light chain (β2m) of stabilized MHC complexes. The assay was performed as generally described in Rodenko et al. (Rodenko et al., 2006).
(§2) 96 well MAXISorp plates (NUNC) were coated over night with 2 ug/ml streptavidin in PBS at room temperature, washed 4× and blocked for 1 h at 37° C. in 2% BSA containing blocking buffer. Refolded HLA-A*02:01/MLA-001 monomers served as standards, covering the range of 15-500 ng/ml. Peptide-MHC monomers of the UV-exchange reaction were diluted 100-fold in blocking buffer. Samples were incubated for 1 h at 37° C., washed four times, incubated with 2 ug/ml HRP conjugated anti-β2m for 1 h at 37° C., washed again and detected with TMB solution that is stopped with […]. Absorption was measured at 450 nm. Candidate peptides that show a high exchange yield (preferably higher than 50%, most preferred higher than 75%) are generally preferred for a generation and production of antibodies or fragments thereof, and/or T cell receptors or fragments thereof, as they show sufficient avidity to the MHC molecules and prevent dissociation of the MHC complexes.

HLA-B*44:02 = biological target: T2, HLA-B*44:02 (human); assay: UV ligand exchange ELISA; exchange yield grade
T2 construct: Peptide-receptive MHC class I monomer made by UV cleavage of a UV-sensitive ligand
Excerpt: as §1, §2

Binder | peptide exchange yield (HLA-B*07:02) [%] | peptide exchange yield (HLA-B*44:02) [%]
RPNGNSLFTSA | 50 to 75 | –
RPRGLALVL | 50 to 75 | –
SPVPSHWMVA | 50 to 75 | –
KPLFKVSTF | 20 to 50 | –
SESPWLHAPSL | 50 to 75 | –
APFGFLGMQSL | 50 to 75 | –
IPVSRPIL | 50 to 75 | –
SPKLQIAAM | 50 to 75 | –
IPVSHPVL | 20 to 50 | –
IPASHPVL | 20 to 50 | –
FPAPILRAV | 50 to 75 | –
MPDPHLYHQM | 20 to 50 | –
FPETVNNLL | 20 to 50 | –
KPKAAKPKA | 20 to 50 | –
KPKAAKPKAA | 20 to 50 | –
KPKAAKPKTA | 20 to 50 | –
KAKKPAGAA | 20 to 50 | –
KARKSAGAA | 50 to 75 | –
KPKAAKPKKAAA | 20 to 50 | –
KPKKAPKSPA | 50 to 75 | –
LPFGKIPIL | 20 to 50 | –
YPIALTRAEM | 50 to 75 | –

Binder | peptide exchange yield (HLA-B*07:02) [%] | peptide exchange yield (HLA-B*44:02) [%]
SPRAINNLVL | > 75 | –
YPYQERVFL | 20 to 50 | –
NPRYPNYMF | 50 to 75 | –
LPLSMEAKI | 20 to 50 | –
IPANTEKASF | 20 to 50 | –
RPMTPTQIGPSL | 50 to 75 | –
NPLTKLLAI | 50 to 75 | –
KAFKWFSAL | 20 to 50 | –
LPARFYQAL | > 75 | –
YLNRHLHTW | 20 to 50 | –
APINKAGSFL | > 75 | –
SPRITFPSL | > 75 | –
SPLGSLARSSL | > 75 | –
KPMKSVLVV | 50 to 75 | –
MPLSTIREV | 20 to 50 | –
APRPAGSYL | 50 to 75 | –
SPRVYWLGL | 50 to 75 | –
SPKESENAL | 20 to 50 | –
SPSLPSRTL | 20 to 50 | –
RPSNKAPLL | 50 to 75 | –
SPWLHAPSL | 20 to 50 | –
SPRSWIQVQI | 50 to 75 | –

Binder | peptide exchange yield (HLA-B*07:02) [%] | peptide exchange yield (HLA-B*44:02) [%]
APSKTSLIM | 20 to 50 | –
SPSLPNITL | 50 to 75 | –
EELFRDGVNW | – | 50 to 75
EENTLVQNY | – | 20 to 50
AEIGEGAYGKVF | – | 50 to 75
NEIEHIPVW | – | 50 to 75
QENQAETHAW | – | 50 to 75
REAGFQVKAY | – | 50 to 75
SEDHSGSYW | – | 50 to 75
QEVDASIFKAW | – | 50 to 75
VDASIFKAW | – | 20 to 50
KEKFPINGW | – | 50 to 75
NEDKGTKAW | – | 20 to 50
KELEDLNKW | – | 50 to 75
AESEDLAVHL | – | 20 to 50
AESEDLAVHLY | – | 20 to 50
KEFELRSSW | – | 50 to 75
AEIEIVKEEF | – | 20 to 50
GEAVTDHPDRLW | – | 50 to 75
TENPLTKLL | – | > 75
EEEGNLLRSW | – | 50 to 75
EEGNLLRSW | – | 50 to 75
